Source: paper PMC10199020 (Nature Communications, 2023)

Target: T1, NL-IL23R co-expressed with IL12Rβ1 (IL-23 receptor on cells) (UniProt Q5VWK5 24-629; P42701 24-662)
T1 construct: also called NL-IL23R and IL12Rβ1; NL-IL23R with IL12Rβ1; source: HEK293T, transiently transfected, on living cells
Assay: FRET or BRET; NanoBRET competition on living transfected HEK293T cells; 300 pM IL23-TMR displaced by unlabelled antagonist (concentration series or a single concentration); 1 h at 37 °C in HBSS with 1 mg/mL BSA
Details: one partner purified

T1 sequence (Q5VWK5 24-629, chain 1 of 2, other chains not shown): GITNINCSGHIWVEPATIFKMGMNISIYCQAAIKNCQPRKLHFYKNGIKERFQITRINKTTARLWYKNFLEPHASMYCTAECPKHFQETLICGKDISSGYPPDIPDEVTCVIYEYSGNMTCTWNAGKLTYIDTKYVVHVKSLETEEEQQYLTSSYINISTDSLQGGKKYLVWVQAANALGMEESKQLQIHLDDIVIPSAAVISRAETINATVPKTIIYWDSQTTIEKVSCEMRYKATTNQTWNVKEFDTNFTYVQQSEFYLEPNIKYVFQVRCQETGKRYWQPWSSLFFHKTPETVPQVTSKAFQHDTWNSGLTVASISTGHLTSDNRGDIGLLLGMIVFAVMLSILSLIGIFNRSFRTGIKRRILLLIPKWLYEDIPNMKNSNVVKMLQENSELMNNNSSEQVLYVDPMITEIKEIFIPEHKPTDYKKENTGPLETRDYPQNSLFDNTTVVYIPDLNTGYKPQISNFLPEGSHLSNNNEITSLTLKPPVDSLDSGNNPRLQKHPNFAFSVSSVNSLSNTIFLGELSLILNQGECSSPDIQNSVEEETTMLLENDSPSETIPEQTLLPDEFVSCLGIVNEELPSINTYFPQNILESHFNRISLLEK

Ki: 12.4 nM
B1: IL12p40 (ligand, UniProt P29460 23-328, looked up)
chain: IWELKKDVYVVELDWYPDAPGEMVVLTCDTPEEDGITWTLDQSSEVLGSGKTLTIQVKEFGDAGQYTCHKGGEVLSHSLLLLHKKEDGIWSTDILKDQKEPKNKTFLRCEAKNYSGRFTCWWLTTISTDLTFSVKSSRGSSDPQGVTCGAATLSAERVRGDNKEYEYSVECQEDSACPAAEESLPIEVMVDAVHKLKYENYTSSFFIRDIIKPDPPKNLQLKPLKNSRQVEVSWEYPDTWSTPHSYFSLTFCVQVQGKSKREKKDRVFTDKTSATVICRKNASISVRAQDRYYSSSWSEWASVPCS
notes: source: bought: Peprotech (CHO produced)
